The record followed here is publication PMC6449189.

Holding throughout (test): EMSA
Data set [1] addresses T1, LbCas12a (Lachnospiraceae bacterium ND2006, UniProt A0A5S8WF58 1-1228).
In data set [2] the target is T1, LbCas12a. The source holds these as a separate data set.
For data set [3], the target named is T1, LbCas12a. The source holds these as a separate data set.
The target of data set [4] is T1, LbCas12a. The source holds these as a separate data set.

Where two headings read alike, the source gives them in different places.

As to AAUUUCUACUAAGUGUAGAUAAAGUGCUCAUCAUUGGAAAACGU (structured_RNA) [LbCas12a crRNA (24-nt T1) rGJK_007], the Kd (as a rule, the concentration at which binding is half-saturated) with LbCas12a [1] came to 35.8 ± 4.4 nM; in the data set with LbCas12a [2], 16.4 ± 2.1 nM; with LbCas12a [3] it was 38.9 ± 4.7 nM; with LbCas12a [4], 17.6 ± 2.4 nM.
